In patent publication US20190062383A1 (Janssen / Centocor, published 2019):

Target: KV1N2 (OsK1-Fc fusion) (Orthochirus scrobiculosus)
Assay: FACS competition with agitoxin2-cys-TAMRA

B1: hKv1.3 E3 loop/hKv1.5 chimera (receptor)
chain: MEIALVPLENGGAMTVRGGDEARAGCGQATGGELQCPPTAGLSDGPKEPAPKGRGAQRDADSGVRPLPPLPDPGVRPLPPLPEELPRPRRPPPEDEEEEGDPGLGTVEDQALGTASLHHQRVHINISGLRFETQLGTLAQFPNTLLGDPAKRLRYFDPLRNEYFFDRNRPSFDGILYYYQSGGRLRRPVNVSLDVFADEIRFYQLGDEAMERFREDEGFIKEEEKPLPRNEFQRQVWLIFEYPESSGSARAIAIVSVLVILISIITFCLETLPEFRDERELLRHPPAPHQPPAPAPGANGSGVMAPPSGPTVAPLLPRTLADPFFIVETTCVIWFTFELLVRFFACPSKAGFSRNIMNIIDVVAIFPYFITLGTELAEQQPGGGGGGQNGQQAMSLAILRVIRLVRVFRIFKLSRHSKGLQILGKTLQASMRELGLLIFFLFIGVILFSSAVYFAEADDPTSGFSSIPDAFWWAVVTMTTVGYGDMHPVTIGGKIVGSLCAIAGVLTIALPVPVIVSNFNYFYHRETDHEEPAVLKEEQGTQSQGPGLDRGVQRKVSGSRGSFCKAGGTLENADSARRGSCPLEKCNVKAKSNVDLRRSLYALCLDTSRETDL
- binding result: binds
